{"source": "paper PMC4513872", "target": "C-Intein_C-Cas9_v1 (Nostoc punctiforme | Streptococcus pyogenes) (UniProt Q99ZW2)"}
{"substance": "N-Cas9_N-Intein_v1 (from UniProt Q99ZW2 1-573)", "values": [{"measurement": "percentage of indels at the endogenous Fus locus in Neuro-2a cells (T7 endonuclease I assay) after transfection of both moieties; wild-type SpCas9 gave 23.1%", "result": 22.7, "unit": "%"}]}
